Reference: publication PMC5460017, “Regulated membrane remodeling by Mic60 controls formation of mitochondrial crista junctions” (Nature Communications, 2017)
Bridge positions count the residues as written; N and C are the ends. Ends that are not written are not given here.

T1: Mic60solΔLBS1 (Chaetomium thermophilum Mic60sol with an internal deletion of LBS1) (Chaetomium thermophilum)
T1 chain: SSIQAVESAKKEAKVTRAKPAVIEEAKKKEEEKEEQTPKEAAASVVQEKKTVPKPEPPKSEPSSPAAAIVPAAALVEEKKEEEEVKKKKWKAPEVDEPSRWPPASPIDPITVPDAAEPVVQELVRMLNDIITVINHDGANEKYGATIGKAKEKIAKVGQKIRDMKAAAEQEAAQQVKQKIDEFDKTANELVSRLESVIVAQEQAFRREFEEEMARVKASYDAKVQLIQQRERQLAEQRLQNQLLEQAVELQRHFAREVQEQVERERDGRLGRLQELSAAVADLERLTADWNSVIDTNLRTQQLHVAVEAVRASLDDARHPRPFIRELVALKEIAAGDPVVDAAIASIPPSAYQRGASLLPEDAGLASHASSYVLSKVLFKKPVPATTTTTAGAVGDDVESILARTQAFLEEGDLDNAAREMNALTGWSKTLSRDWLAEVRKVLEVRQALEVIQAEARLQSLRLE


Columns and labels:
[1] = target: T2, Mic60sol (Chaetomium thermophilum Mic60, residues 208–691) (Chaetomium thermophilum); experiment: ITC; about 450 μM Mic19 construct in the syringe titrated into about 40 μM Mic60 construct in the cell; 10 °C; 20 mM HEPES/NaOH pH 7.5, 150 mM NaCl; untagged proteins; conditions: both partners purified
T2 construct: Mic60 of Chaetomium thermophilum, UniProt G0SHY5, residues 208-691; codon-optimized synthetic cDNA in a modified pET28a; source: E. coli BL21 DE3, purified (Ni-NTA, His6 tag cleaved with PreScission protease, size-exclusion chromatography); not shown: His6, N-terminal, cleaved

[2] = target: T1, Mic60solΔLBS1 (Chaetomium thermophilum …); experiment: native gel or EMSA; blue native (BN)-PAGE of purified Mic60 constructs; conditions: both partners purified

Row | Binder | Kd [1] [nM] | stoichiometry N [1] | stoichiometry N [2]
1 | RPLPESVEKARSEVVRCLREHDRRPLNCWQEVEAFKEEVRKLEKGWVDK (domain or fragment, disulfide 17-28) [isolated CHCH domain of Mic19 (Chaetomium thermophilum)] | 390 | 0.77 ± 0.01 | 
2 | Mic60solΔLBS1 (Chaetomium thermophilum Mic60sol with an internal deletion of LBS1) (domain or fragment, His6 tag removed; outer limits 208-691 printed; LBS1 = 563-582 deduced from the printed truncations ending at 562 (no LBS) and 582 (LBS1 kept); check residues lie in the deleted segment and only …) SSIQAVESAKKEAKVTRAKPAVIEEAKKKEEEKEEQTPKEAAASVVQEKKTVPKPEPPKSEPSSPAAAIVPAAALVEEKKEEEEVKKKKWKAPEVDEPSRWPPASPIDPITVPDAAEPVVQELVRMLNDIITVINHDGANEKYGATIGKAKEKIAKVGQKIRDMKAAAEQEAAQQVKQKIDEFDKTANELVSRLESVIVAQEQAFRREFEEEMARVKASYDAKVQLIQQRERQLAEQRLQNQLLEQAVELQRHFAREVQEQVERERDGRLGRLQELSAAVADLERLTADWNSVIDTNLRTQQLHVAVEAVRASLDDARHPRPFIRELVALKEIAAGDPVVDAAIASIPPSAYQRGASLLPEDAGLASHASSYVLSKVLFKKPVPATTTTTAGAVGDDVESILARTQAFLEEGDLDNAAREMNALTGWSKTLSRDWLAEVRKVLEVRQALEVIQAEARLQSLRLE |  |  | 2
